Experimental data as given in article PMC4344528, “Structural role of the flanking DNA in mariner transposon excision” (Nucleic Acids Research, 2015).

Molecular target: the molecule itself
Experiment: crystal structure; pre-TS cleavage Mos1 paired-end complex: T216A/D249A transposase mixed equimolar with ds IR DNA substrate; hanging-drop vapour diffusion, 100 mM ammonium acetate, 20 mM MgCl2, 50 mM HEPES pH 7.0, 5% PEG 8000; 3.09 Å, C222(1)

B1: T216A/D249A Mos1 transposase double mutant (enzyme)
chain: MSSFVPNKEQTRTVLIFCFHLKKTAAESHRMLVEAFGEQVPTVKKCERWFQRFKSGDFDVDDKEHGKPPKRYEDAELQALLDEDDAQTQKQLAEQLEVSQQAVSNRLREMGKIQKVGRWVPHELNERQMERRKNTCEILLSRYKRKSFLHRIVTGDEKWIFFVSPKRKKSYVDPGQPATSTARPNRFGKKTMLCVWWDQSGVIYYELLKRGETVNAARYQQQLINLNRALQRKRPEYQKRQHRVIFLHANAPSHTARAVRDTLETLNWEVLPHAAYSPDLAPSDYHLFASMGHALAEQRFDSYESVKKWLDEWFAAKDDEFYWRGIHKLPERWEKCVASDGKY
notes: mariner Mos1 transposase, from the codon-optimized Mos1 gene; T216A allows soluble expression in E. coli, D249A is the active site mutation; Crystallised as a paired-end complex (PEC): a transposase dimer with two DNA substrates (33 nt transferred strand, 25 nt non-transferred strand); PDB 3HOS is the post-cleavage PEC of the parent transposase, without D249A; also called T216A/D249A mutant …
stoichiometry N: 2
